In US20250019454A1 (BIOCYTOGEN PHARMACEUTICALS BEIJING, published 2025):

Tests used:
[1] = molecular target: T1, ΔCRD4-TNFR2 protein (with CRD4 deletion), on CHO-S cells (human, UniProt P20333 23-461); test: FACS on CHO-S cells with ΔCRD4-TNFR2
T1 construct: also called CHO-SΔCRD4-TNFR2; TNFR2 lacking CRD4
T1 sequence: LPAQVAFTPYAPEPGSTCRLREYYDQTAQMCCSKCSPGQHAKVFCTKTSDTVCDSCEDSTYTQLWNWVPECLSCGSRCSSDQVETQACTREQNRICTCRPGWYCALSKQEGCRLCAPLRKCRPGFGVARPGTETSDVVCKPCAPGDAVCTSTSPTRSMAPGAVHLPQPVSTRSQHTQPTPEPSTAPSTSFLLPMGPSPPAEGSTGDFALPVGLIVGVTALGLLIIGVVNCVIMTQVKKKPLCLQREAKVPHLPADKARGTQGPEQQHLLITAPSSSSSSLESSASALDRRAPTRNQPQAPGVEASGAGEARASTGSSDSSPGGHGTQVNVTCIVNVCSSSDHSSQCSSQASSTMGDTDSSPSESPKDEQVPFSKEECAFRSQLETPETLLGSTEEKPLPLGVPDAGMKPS
Text: (§1) TNFR2 has four cysteine rich domains (CRD). In another experiment, FACS was used to detect the binding of anti-hTNFR2 antibodies to TNFR2 proteins with different structural domains. Secondary antibody (Alexa Fluor® 647 AffiniPure F(ab′) 2 Fragment Goat Anti-Human IgG, Fcγ fragment specific, Jackson ImmunoResearch Laboratories, Inc., Cat #: 151524) was used. The fluorescence-labeled secondary antibody can attach to the Fc region of the anti-hTNFR2 antibodies so that the anti-hTNFR2 antibodies that are bound to the ΔCRD cells can be detected by FACS. Specifically, ΔCRD1-TNFR2 protein (with CRD1 deleteion), ΔCRD2-TNFR2 protein (with CRD2 deleteion), ΔCRD3-TNFR2 protein (with CRD3 deleteion) or ΔCRD4-TNFR2 protein (with CRD4 deleteion) were expressed in CHO-S cells respectively, and then the binding between the cells and different anti-hTNFR2 antibodies was detected.

[2] = molecular target: T2, ΔCRD2-TNFR2 protein (with CRD2 deletion), on CHO-S cells (human, UniProt P20333 23-461); test: FACS on CHO-S cells with ΔCRD2-TNFR2, AF647 anti-human IgG Fc secondary
T2 construct: also called CHO-SΔCRD2-TNFR2
T2 sequence: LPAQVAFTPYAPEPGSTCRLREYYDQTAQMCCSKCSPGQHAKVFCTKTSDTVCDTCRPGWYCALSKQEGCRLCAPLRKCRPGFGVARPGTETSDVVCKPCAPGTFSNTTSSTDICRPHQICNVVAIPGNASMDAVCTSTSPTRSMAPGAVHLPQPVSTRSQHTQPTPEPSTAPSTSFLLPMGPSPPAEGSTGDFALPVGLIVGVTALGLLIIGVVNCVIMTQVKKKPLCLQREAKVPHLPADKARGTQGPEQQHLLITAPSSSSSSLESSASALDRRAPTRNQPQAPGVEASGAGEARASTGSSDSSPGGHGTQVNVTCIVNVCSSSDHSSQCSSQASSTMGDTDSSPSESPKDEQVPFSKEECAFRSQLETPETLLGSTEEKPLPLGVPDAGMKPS
Text: as §1

[3] = molecular target: T3, ΔCRD1-TNFR2 protein (with CRD1 deletion), on CHO-S cells (human, UniProt P20333 23-461); test: FACS on CHO-S cells with ΔCRD1-TNFR2, AF647 anti-human IgG Fc secondary
T3 construct: also called CHO-SΔCRD1-TNFR2
T3 sequence: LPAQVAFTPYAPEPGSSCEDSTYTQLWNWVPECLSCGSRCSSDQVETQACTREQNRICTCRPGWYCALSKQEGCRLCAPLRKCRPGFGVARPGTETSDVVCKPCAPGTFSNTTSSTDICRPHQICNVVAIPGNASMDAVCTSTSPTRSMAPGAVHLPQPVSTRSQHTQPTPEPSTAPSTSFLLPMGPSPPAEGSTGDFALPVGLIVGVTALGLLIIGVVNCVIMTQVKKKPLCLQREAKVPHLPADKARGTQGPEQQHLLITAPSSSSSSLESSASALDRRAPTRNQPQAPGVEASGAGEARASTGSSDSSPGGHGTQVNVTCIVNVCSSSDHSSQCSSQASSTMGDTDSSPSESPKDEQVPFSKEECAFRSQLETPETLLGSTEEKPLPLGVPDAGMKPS
Text: as §1

[4] = molecular target: T1, ΔCRD4-TNFR2 protein (with CRD4 …); test: FACS on CHO-S cells with ΔCRD4-TNFR2, AF647 anti-human IgG Fc secondary
Text: as §1

[5] = molecular target: T4, ΔCRD3-TNFR2 protein (with CRD3 deletion), on CHO-S cells (human, UniProt P20333 23-461); test: FACS on CHO-S cells with ΔCRD3-TNFR2, AF647 anti-human IgG Fc secondary
T4 construct: also called CHO-SΔCRD3-TNFR2; TNFR2 lacking CRD3
T4 sequence: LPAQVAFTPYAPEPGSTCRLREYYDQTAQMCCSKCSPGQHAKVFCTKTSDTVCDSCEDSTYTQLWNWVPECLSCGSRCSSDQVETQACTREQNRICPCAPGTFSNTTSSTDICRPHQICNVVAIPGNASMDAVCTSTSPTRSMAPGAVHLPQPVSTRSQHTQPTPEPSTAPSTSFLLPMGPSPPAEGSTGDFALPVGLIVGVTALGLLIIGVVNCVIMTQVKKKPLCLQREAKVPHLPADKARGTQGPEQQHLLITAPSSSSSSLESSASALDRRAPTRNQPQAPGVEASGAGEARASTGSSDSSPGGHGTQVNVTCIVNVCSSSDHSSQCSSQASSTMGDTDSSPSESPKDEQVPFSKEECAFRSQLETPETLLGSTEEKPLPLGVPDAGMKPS
Text: as §1

[6] = molecular target: T4, ΔCRD3-TNFR2 protein (with CRD3 …); test: FACS on CHO-S cells with ΔCRD3-TNFR2
Text: as §1

binding result [1]: no binding
positive rate of binding (% of cells) [2]: 75.6%
positive rate of binding (% of cells) [3]: 66.5%
positive rate of binding (% of cells) [4]: 0.83%
positive rate of binding (% of cells) [5]: 0.44%
binding result [6]: no binding
B1: BC-1B6-IgG1-LALA (antibody, V domains shown)
VH: QVQLVESGGGVVQPGRSLRLSCAASGFTFSNFGMHWVRQAPGKGLEWVAVIWYEGSDKYYADSVKGRFTISRDNSKNTLYLQMNSLRAEDTAVYYCARDSSWGFLLYGMDVWGQGTTVTVSS
VL: DVVMTQSPLSLPVTLGQPASISCRSSRSLEYSDGNTYLNWFQQRPGQSPRRLIYKVSNRDSGVPDRFSGSGSGTAFTLKISGVEAEDVGVYYCMQGTHWPPTFGGGTKVEIK
